Data from the supplement of paper PMC10724198.
± gives the standard deviation of the averaged measurements.

tested on: Saccharomyces cerevisiae; assay: protein stability index of tFT-peptide fusion (C-terminal peptide) (PSI (0-1 scale)); higher = more stable (slower turnover); settings: genetic background: wild type; temperature: 30 C
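Also: PSI is a weighted mean of sequencing reads over stability bins, variants kept only with over 10 reads, mCherry proximal and sfGFP distal, peptide attached via GGGS linker.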

Row | Sequence | protein stability index
1 | PPCFPHPLPPPR | 0.744 ± 0.022
2 | PPCPFPTLPVTH | 0.73 ± 0.013
3 | PPCTSTTQRANP | 0.696 ± 0.073
4 | PPDLPTRSPDNP | 0.658 ± 0.04
5 | PPDSSPLGGEVG | 0.6775 ± 0.0058
6 | PPFAPAPALSAS | 0.758 ± 0.11
7 | PPFFFIDMGASN | 0.697 ± 0.054
8 | PPFFPLRPSLVL | 0.656 ± 0.051
9 | PPFLRSALRSSS | 0.672 ± 0.015
10 | PPFLYVLVSSIL | 0.54 ± 0.15
11 | PPFPHPSRLPPA | 0.726 ± 0.028
12 | PPFPPAPPRGPA | 0.659 ± 0.043
13 | PPGLPPGPARPP | 0.635 ± 0.036
14 | PPGPPPSSPPPP | 0.73 ± 0.024
15 | PPGSPPSLHLPP | 0.734 ± 0.021
16 | PPHCPLVLPSLS | 0.67 ± 0.044
17 | PPHHPPPTLFPA | 0.698 ± 0.076
18 | PPHNPTPSPTTP | 0.719 ± 0.11
19 | PPHPLSLSLRPP | 0.634 ± 0.034
20 | PPHPPLPPPSPS | 0.704 ± 0.056
21 | PPHPPNFSSPPP | 0.656 ± 0.023
22 | PPHPPPPAPLPS | 0.73 ± 0.029
23 | PPHPPPPSPTPP | 0.656 ± 0.019
24 | PPHPVTLSPART | 0.614 ± 0.04
25 | PPHTHTQRPSPT | 0.715 ± 0.027
26 | PPILLPPPDASH | 0.702 ± 0.025

Row | Sequence | protein stability index
27 | PPINPTEPPITI | 0.696 ± 0.092
28 | PPIPNPPPHPLP | 0.657 ± 0.057
29 | PPLCRSFPPASL | 0.791 ± 0.061
30 | PPLFTAAPRRWS | 0.752 ± 0.093
31 | PPLLDASPAPIL | 0.689 ± 0.024
32 | PPLLLTSLMLLP | 0.655 ± 0.034
33 | PPLLPPVSPPPP | 0.684 ± 0.061
34 | PPLLQPPPPRLL | 0.736 ± 0.048
35 | PPLPATHLPPPP | 0.802 ± 0.058
36 | PPLPLLPPLPPP | 0.644 ± 0.034
37 | PPLPLPSPPTPH | 0.654 ± 0.021
38 | PPLPLTSPPPSP | 0.631 ± 0.024
39 | PPLPPAPTPALP | 0.684 ± 0.029
40 | PPLPPPFSPLPP | 0.686 ± 0.025
41 | PPLPPPLLPFSI | 0.747 ± 0.019
42 | PPLPPPPPAPAP | 0.634 ± 0.016
43 | PPLPPPPRSPPS | 0.7565 ± 0.0021
44 | PPLPPPSPESVS | 0.709 ± 0.056
45 | PPLPPSPPRSPP | 0.552 ± 0.029
46 | PPLPSPPAPPAP | 0.655 ± 0.0086
47 | PPLPSPPQPYSA | 0.639 ± 0.013
48 | PPLPSSLPPISF | 0.703 ± 0.015
49 | PPLRPFLLPPPS | 0.722 ± 0.077
50 | PPLRPHHPLYHS | 0.687 ± 0.011
51 | PPLSLLPSSSPH | 0.664 ± 0.0081
52 | PPLSPTLTIPPP | 0.698 ± 0.079

Row | Sequence | protein stability index
53 | PPLSSSALPARS | 0.692 ± 0.011
54 | PPLTPPTPVPPG | 0.6937 ± 0.0056
55 | PPLTVRPFPFRV | 0.662 ± 0.015
56 | PPLVSPPPPLPP | 0.62 ± 0.015
57 | PPNPFPALRSSP | 0.7324 ± 0.0011
58 | PPPAPPGPRYRR | 0.696 ± 0.025
59 | PPPAPPHPPLRH | 0.682 ± 0.027
60 | PPPAPPLILVLP | 0.539 ± 0.0037
61 | PPPAPPLSPPPH | 0.653 ± 0.038
62 | PPPAPPPHRDLS | 0.709 ± 0.057
63 | PPPAPPPPLRLL | 0.721 ± 0.046
64 | PPPARPAPLSPP | 0.692 ± 0.08
65 | PPPASSPPPSAS | 0.626 ± 0.062
66 | PPPCPHLAPRLP | 0.714 ± 0.071
67 | PPPCPHRDGTSP | 0.664 ± 0.05
68 | PPPCRSLPLLPP | 0.6546 ± 0.005
69 | PPPDTPSPPSSL | 0.668 ± 0.026
70 | PPPFRPPPRLYS | 0.693 ± 0.025
71 | PPPFRTPPSRRP | 0.739 ± 0.057
72 | PPPGPSPLAAPP | 0.654 ± 0.056
73 | PPPGRPDAMTPP | 0.676 ± 0.022
74 | PPPGSPLPPPRA | 0.702 ± 0.036
75 | PPPILFTEPPLA | 0.738 ± 0.0049
76 | PPPIPLSPPLVL | 0.72 ± 0.014
77 | PPPIPPFRLSRS | 0.69 ± 0.061
78 | PPPLLPPTPLPP | 0.619 ± 0.0069

Row | Sequence | protein stability index
79 | PPPLPLPPPPPP | 0.58 ± 0.048
80 | PPPLPPPAPPPR | 0.663 ± 0.014
81 | PPPLPPPLPLCS | 0.675 ± 0.023
82 | PPPLPPPYPPPP | 0.627 ± 0.016
83 | PPPLPSPPRPPS | 0.734 ± 0.045
84 | PPPLPTRPPPSA | 0.649 ± 0.0082
85 | PPPLRTHTGPPP | 0.678 ± 0.0069
86 | PPPLSPPLPFFV | 0.666 ± 0.036
87 | PPPLSSPPPRPL | 0.709 ± 0.058
88 | PPPLTPPPPPPR | 0.725 ± 0.014
89 | PPPNPHAASTHH | 0.654 ± 0.0077
90 | PPPPAFPPPLSP | 0.716 ± 0.067
91 | PPPPAHPPPRSP | 0.741 ± 0.035
92 | PPPPANVSHHAP | 0.593 ± 0.073
93 | PPPPAPPPPVPS | 0.69246 ± 0.00027
94 | PPPPAPSPPPSP | 0.717 ± 0.0094
95 | PPPPASARPSLP | 0.477 ± 0.069
96 | PPPPFLLPPLLD | 0.707 ± 0.012
97 | PPPPHFLVPLSP | 0.695 ± 0.021
98 | PPPPLDSFPFIT | 0.701 ± 0.043
99 | PPPPLLPPPSPL | 0.7 ± 0.032
100 | PPPPLLPTPRPF | 0.682 ± 0.039
101 | PPPPLPPPPSPA | 0.7911 ± 0.0045
102 | PPPPLPPPSHYP | 0.728 ± 0.033
103 | PPPPLPRAPFSP | 0.661 ± 0.0092
104 | PPPPLPSPAPRP | 0.735 ± 0.032

Row | Sequence | protein stability index
105 | PPPPLSPPPEPR | 0.659 ± 0.014
106 | PPPPNPPRPSSR | 0.758 ± 0.026
107 | PPPPPALPSPPP | 0.631 ± 0.025
108 | PPPPPAPPPTPL | 0.556 ± 0.011
109 | PPPPPATRPSSL | 0.674 ± 0.018
110 | PPPPPFLPPPRL | 0.749 ± 0.011
111 | PPPPPGLAPPSP | 0.681 ± 0.011
112 | PPPPPHRTPHPS | 0.727 ± 0.096
113 | PPPPPLPLDYPP | 0.638 ± 0.025
114 | PPPPPLPPRSCL | 0.703 ± 0.013
115 | PPPPPLSPHSPP | 0.699 ± 0.023
116 | PPPPPPALPEYQ | 0.708 ± 0.01
117 | PPPPPPLAAPPS | 0.7098 ± 0.0053
118 | PPPPPPLPHSPP | 0.647 ± 0.095
119 | PPPPPPLPLLSI | 0.668 ± 0.038
120 | PPPPPPLSSPFP | 0.643 ± 0.032
121 | PPPPPPNPLPLP | 0.68 ± 0.032
122 | PPPPPPPHSPLS | 0.685 ± 0.04
123 | PPPPPPPLPLLP | 0.667 ± 0.036
124 | PPPPPPPPLAPP | 0.694 ± 0.022
125 | PPPPPPPPPPRA | 0.723 ± 0.035
126 | PPPPPPPPPTFL | 0.708 ± 0.017
127 | PPPPPPPPSLSP | 0.591 ± 0.047
128 | PPPPPPPPTTVL | 0.709 ± 0.023
129 | PPPPPPRPPLRP | 0.727 ± 0.012
130 | PPPPPPVHPSSP | 0.728 ± 0.0081

Row | Sequence | protein stability index
131 | PPPPPPVSPAAL | 0.69 ± 0.018
132 | PPPPPRLTPPRL | 0.722 ± 0.09
133 | PPPPPRPPPSSP | 0.746 ± 0.058
134 | PPPPPRPSPHPP | 0.62 ± 0.058
135 | PPPPPSPSASSP | 0.491 ± 0.11
136 | PPPPPSPSPCLA | 0.767 ± 0.044
137 | PPPPPTAPPPSR | 0.733 ± 0.055
138 | PPPPPTRPPTRV | 0.68 ± 0.079
139 | PPPPRAPVPLPV | 0.575 ± 0.022
140 | PPPPRLPLDPPL | 0.658 ± 0.041
141 | PPPPSPPATPAP | 0.652 ± 0.015
142 | PPPPSPPLHRPP | 0.738 ± 0.016
143 | PPPPSPPPPSTT | 0.751 ± 0.08
144 | PPPPTLPPPLVP | 0.726 ± 0.12
145 | PPPPTSFSPGTL | 0.649 ± 0.043
146 | PPPPTSPTSPEL | 0.692 ± 0.051
147 | PPPRHVPLPPLT | 0.71 ± 0.11
148 | PPPRLDTGAAQP | 0.665 ± 0.0097
149 | PPPRLVPSPPVP | 0.7 ± 0.0039
150 | PPPRPPGPPLPH | 0.702 ± 0.075
151 | PPPRPPPAPLAS | 0.705 ± 0.027
152 | PPPRVPPPVPPL | 0.722 ± 0.047
153 | PPPSDPLPPSVR | 0.7044 ± 0.0067
154 | PPPSPAQIPRPS | 0.722 ± 0.19
155 | PPPSPPHFTSPP | 0.683 ± 0.006
156 | PPPSRSLPPTPP | 0.746 ± 0.084

Row | Sequence | protein stability index
157 | PPPSSSGHPLHY | 0.714 ± 0.05
158 | PPPSSSLAAPPT | 0.677 ± 0.026
159 | PPPSSSSPPPPR | 0.704 ± 0.039
160 | PPPSYSPSLSLL | 0.63132 ± 0.00041
161 | PPPTPACPPATL | 0.693 ± 0.039
162 | PPPTPPPPRPLL | 0.747 ± 0.048
163 | PPPTPSGPHPAP | 0.672 ± 0.028
164 | PPPTRPPPPPSL | 0.704 ± 0.075
165 | PPPVDLPTRLIP | 0.642 ± 0.0073
166 | PPPYHLTPPPPF | 0.662 ± 0.052
167 | PPQLHVALPHPE | 0.852 ± 0.2
168 | PPQRNFPARPTP | 0.6988 ± 0.0034
169 | PPRARPRLPPGA | 0.606 ± 0.04
170 | PPRHTPTNPPKA | 0.677 ± 0.05
171 | PPRLPPLPPSYP | 0.777 ± 0.14
172 | PPRPPLPPTLPP | 0.6973 ± 0.0026
173 | PPRPPPSPPLPS | 0.663 ± 0.054
174 | PPRPPRPSPPPP | 0.72293 ± 8.1e-05
175 | PPRPRPPLPALP | 0.764 ± 0.11
176 | PPRPRPPPSPYH | 0.667 ± 0.011
177 | PPRPVPRPHPRP | 0.674 ± 0.011
178 | PPRQSHHPNPQH | 0.682 ± 0.038
179 | PPRRPPLAPPPP | 0.693 ± 0.019
180 | PPRSSLNPDLTQ | 0.695 ± 0.1
181 | PPRYDSLFGALF | 0.676 ± 0.066
182 | PPSAPPSPPHPP | 0.612 ± 0.011

Row | Sequence | protein stability index
183 | PPSFLHPTPRPR | 0.673 ± 0.082
184 | PPSLLPAPQLPP | 0.757 ± 0.066
185 | PPSLLPSPPRLF | 0.667 ± 0.057
186 | PPSLPHLCRLHL | 0.668 ± 0.057
187 | PPSLPLPLPSAP | 0.683 ± 0.015
188 | PPSLVSPSSPPS | 0.708 ± 0.047
189 | PPSPLAPPCSPR | 0.6719 ± 0.0056
190 | PPSPLSRYSPRL | 0.754 ± 0.0043
191 | PPSPPAPSPTPP | 0.721 ± 0.038
192 | PPSPPDPLLCSP | 0.7017 ± 0.0043
193 | PPSPPPPRPPSS | 0.704 ± 0.055
194 | PPSPPSHTPPPS | 0.695 ± 0.051
195 | PPSPRFFPSFPP | 0.729 ± 0.021
196 | PPSPRNSDPPPL | 0.654 ± 0.071
197 | PPSPRPALPLSL | 0.762 ± 0.039
198 | PPSPRPPPSPPP | 0.7 ± 0.039
199 | PPSPSLLPPLPP | 0.684 ± 0.041
200 | PPSPSPHPPPSH | 0.842 ± 0.15
201 | PPSPSPLPHSSP | 0.676 ± 0.058
202 | PPSQLWNSPSPC | 0.767 ± 0.064
